Measured values reported in the DeepSol protein solubility set.

Test: soluble on expression in E. coli; label from the status in PepcDB or PDB records

Sequence | soluble on expression in E. coli
MGSDKIHHHHHHMRVIDGGVTAPKGFKANGYKEGKFGVAIIISEKDAVGAGTFTTNKVVAHPVVLSRELIKNRDKFRAIVANSGNANCFTKDGMEDAKEMQRLVAELFNINEDEVLVASTGVIGRKMDMNIIKDRINKVYNLIKEGNSSINAAKAIMTTDTKPKEIAVEFEVNGKTVRVGGIAKGAGMIAPNMLHATMLCFITTDIEIDKESLTNILQKVVDKTFNNISVDGDTSTNDTVFVLANGLSGVNYEECGEEFENALLYVCRELAKMIVKDGEGATKFMEVVVKGAKTEEDAVKASKAIVNSLLVKTAVFGGDPNWGRIVAAVGYSGADFNPEVVDVILSNYKDEVYLVKDGIPLADEGTEELKKAEEIMKSDEIKIVVDLKMGEFENVCYGCDLSYEYVRINAEYTT | not soluble
SRMMVIKNNSEETKSREYIVIGQVFFASSDKFIASFDFKEVIECVTIDLSAAHFWDITSASALDKVVVKFRREGTQVELIGMNQATKTIVDKFGVHDKPEEVEKLLAG | not soluble
MKKTLALAATAAVLMLSACSSGFGGEKEEEITQKTAKSSEKAIVPKYNISDSYYKMVLPFKAGKARGLTTEQLNTRLDIDEFETGLMRLAQDSFSTDDYLFQEGQYLDEDTVLSWLARKKTGSDLKKAEKEDKNFKNEGLNPALPSSGSTEEKNESSPIYLASMLEHDYLVRKDKNSIQLGGVMIGLALNSVYYYREKTGDPQKEVEIKDSTLRQQGEKIAQEVINRLRKKDNLKNVPITVALYKQASKTSIVPGNFIAKTEVKAGSTDISNWDDINEKYVFYPADTTTAEKYPDDTEVFKRFKNSIEEYFPNYTGVVGTALYENDEMKKMKIDIPMQFYGKSEVVAFTQFLTGEVMDYYSKSSVDVEVNITSSDGQEAVIIRNAGDKEPTVHIYD | not soluble
MPYIEKLELKGFKSYGNKKVVIPFSKGFTAIVGANGSGKSNIGDAILFVLGGLSAKAMRASRISDLIFAGSKNEPPAKYAEVAIYFNNEDRGFPIDEDEVVIRRRVYPDGRSSYWLNGRRATRSEILDILTAAMISPDGYNIVLQGDITKFIKMSPLERRLLIDDISGIAEYDSKKEKALEE | soluble
MGHHHHHHSHMVTSITATANQMPANPPKTVFEFSTEINRTIEKDVMQAVVYSRKTGKQLPDLKKSVSLHLNKVIDNAKKQSDIELEANGVRNFVNYDNNNKPDGWVAEGRVYLKSKNFEALAKVLEQLDSEVAISDIYFSVSPEKAKTLENEMILDVLKQFKHKAEVVQAGLNAKNYVLTDVKLDTPNGNLDQFEVRSFAMMARSVRPASAKEELSLEPGKATLSARASGKVQFE | soluble
MGSDKIHHHHHHMAPRKVIITCAVTGSVHTPSMSPYLPVTPDQIASDAIAAAEAGASILHLHARDPKDGRPTADPDVFMQFLPRIKQATDAVINITTGGSSLMTLDQRLAAPLRAEPEMCSLNMGSMNFALFPMLDKPREWQHEWEPKLLEATRDTIFKNTFADMEGVLERLGKGCGTRFEFECYDVGHLYSLAHFRDRGLVSGPLFIQFVLGILGGIGADPDNLVHMKRIADKLFGDSYQFSVLAAGRQQMPLISIAAAMGGNVRVGLEDSLYDGRQLAKSNADQVRRIRGILDGLSLEVATPAEAREMLALKGGDRVAF | not soluble
MTHHTEVFEGGTIDIEDDTSLTINGKEISYVHDAVKNKWSSRYLPYTQYDSLLDLARAIIRDTVEFSGVKE | soluble
MDLLSLKTVTTLSDCVTIAEQDQVKIVRVIHDKASAAISLHGGHVLSFQPKGQADLLWMSSQAIYDGKAALRGGIPVCWPWFGRIAAPAHGFARNQEWKLIEHREIEQGVIVTLGLQATPESLAIWPYQFDVRLHVEIRESLTVTLDVTNTDSKAWTFSGALHTYLHVGDIRETQTSGVGTEYIDSLQNSRLCTQHGLLTLTDTIDRVYTQPEPLITVQDPALARTLTVENQGHNSAVLWNPWQQGAQSMADMNDEGYLHFLCVESTLHAPSLAEGITLQPGQNHQLVTQITSQAQ | not soluble
MTSGTTRWLDDCTPRALERFADELIAMAEQREDEARRRFYEGMAVAAKLIALRWEGKCAYIDDHLLDNVYEALAVFSLEKLEKTLAMEAEEAHGGGRCSFCLKEKPRLAKGPLAAICDDCLQFGLQVIAKQP | not soluble
MPKIRIKLRGFDHKTLDASAQKIVEAARRSGAQVSGPIPLPTRVRRFTVIRGPFKHKDSREHFELRTHNRLVDIINPNRKTIEQLMTLDLPTGVEIEIKTVGGGR | soluble
MVIRVFIASSSGFVAIKKKQQDVVRFLEANKIEFEEVDITMSEEQRQWMYKNVPPEKKPTQGNPLPPQIFNGDRYCGDYDSFFESKESNTVFSFLGLK | soluble
MSSVVVVGTQWGDEGKGKITDFLSEHAEVVARYQGGNNAGHTIVFGGVKYKLHLIPSGIFYKEKICVIGNGLVVDPKALLEELKYLHDRGVSTDNLRVSNRAHVILPYHLKQDELEEASKGDNKIGTTKKGIGPAYMDKAARIGIRMADLLDREAFKEKLEQNLAQKNRLFEKMYDTEGFSVDEIFEEYFEYGQQIAQYVCDTSVVLNDALDNNHRVLFEGAQGVMLDIDHGTYPFVTSSNPIAGGVTVGTGVGPAKVTRVVGVCKAYTSRVGDGPFPTELHDEIGHQIREVGREYGTTTGRPRRVGWFDSVVVRHARRVSGLTDLSLNSIDVLTGIPTLKICVAYKCDGKVIDEVPANLNILAKCEPVYEELPGWTEDITGVRSLDELPENARKYVERVSELTGIQLSMFSVGPDRNQTNIVRNVYEA | not soluble
ELSGDDQGDEEEDDHAYEGVPNGGWHTSSLSLSLPSTIAAPHPMDGPPGGSTPVTPVIKAGWLDKNPPQGSYIYQKRWVRLDTDHLRYFDSNKDAYSKRFISVACISHVAAIGDQKFEVITNNRTFAFRAESDVERKEWMQALQQAMAEQRARARLSSAYLLGVPGSEQPDRAGSLELRGFKNKLYVAVVGDKVQLYKNLEEYHLGIGITFIDMSVGNVKEVDRRSFDLTTPYRIFSFSADSELEKEQWLEAMQGAIAEALSTSEVAERIWAAAPNRFCADCGAPQPDWASINLCVVICKRCAGEHRGLGAGVSKVRSLKMDRKVWTETLIELFLQLGNGAGNRFWAANVPPSEALQPSSSPSTRRCHLEAKYREGKYRRYHPLFGNQEELDKALCAAVTTTDLAETQALLGCGAGINCFSGDPEAPTPLALAEQAGQTLQMEFLRNNRTTEVPRLDSMKPLEKHYSVVLPTVSHSGFLYKTASAGKLLQDRRAREEFSRRWCVLGDGVLSYFENERAVTPNGEIRASEIVCLAVPPPDTHGFEHTFEVYTEGERLYLFGLESAEQAHEWVKCIAKAFVPPLAEDLLARDFERLGRLPYKAGLSLQRAQEGWFSLSGSELRAVFPEGPCEEPLQLRKLQELSIQGDSENQVLVLVERRRTLYIQGERRLDFMGWLGAIQKAAASMGDTLSEQQLGDSDIPVIVYRCVDYITQCGLTSEGIYRKCGQTSKTQRLLESLRQDARSVHLKEGEQHVDDVSSALKRFLRDLPDGLFTRAQRLTWLEASEIEDEEEKVSRYRELLVRLPPVNRATVKALISHLYCVQCFSDTNQMNVHNLAIVFGPTLFQTDGQDYKAGRVVEDLINHYVVVFSVDEEELRKQREEITAIVKMRVAGTASGTQHAGDFICTVYLEEKKAETEQHIKVPASMTAEELTLEILDRRNVGIREKDYWTCFEVNEREEAERPLHFAEKVLPILHGLGTDSHLVVKKHQAMEAMLLYLASRVGDTKHGMMKFREDRSLLGLGLPSGGFHDRYFILNSSCLRLYKEVRSQRPWSGAPETSHRPEKEWPIKSLKVYLGVKKKLRPPTCWGFTVVHETEKHEKQQWYLCCDTQMELREWFATFLFVQHDGLVWPSEPSRVSRAVPEVRLGSVSLIPLRGSENEMRRSVAAFTADPLSLLRNV | soluble
MAAESQLKRVIETLRRLGIEEVLKLERRDPQYRAVCNVVKRHGETVGSRLAMLNALISYRLTGKGEEHWEYFGKYFSQLEVIDLCRDFLKYIETSPFLKIGVEARKKRALKACDYVPNLEDLGLTLRQLSHIVGARREQKTLVFTIKILNYAYMCSRGVNRVLPFDIPIPVDYRVARLTWCAGLIDFPPEEALRRYEAVQKIWDAVARETGIPPLHLDTLLWLAGRAVLYGENLHGVPKEVIALFQWRGGCRPPSE | soluble
MITLWGRNNSTNVKKVLWTLEELELPYDQILAGGKFGVNQDADYLAMNPNGLVPLLKDDETDLLLWESNAIVRYLAAQYGQNRLWVDNPARRAEGEKWMDWANQTLSPAHRVILMGLVRTPPEKRDQAAIEAGIEKCDSLFALLDDALAHQPWFSGDNFGTGDIAIAPFVYNLLNVGLKWTPRPNLERWYQQLTERPAFRKVVMIPVT | not soluble
MVNNSKTILITGCSHGGIGYATAVHLKNLGHRVFASARQQKDVEALSQEGFETYLIDVTNYEYIDNALADILNKTGGSLDVIFNNAGYGQAGALEDIDTKFLKQQFETNVFGLHNLTYKALKIMRKQGYGKIIQHSSVLGLVAMKYRGAYNASKYAIEGLTDTMRLELRDSNIFITSLNTGPITSKFRENSIKTITNVNYDSSVHKQQYEKILARQHKKVPFNEPAISVAKVVEKIINCDKPKPRYYITKATWIMASLKRILPTNILDNFLNRY | not soluble
MAHHHHHHMELLNQENDGFLEDMSDSINKQIKELENVPSKDIIRNIWFKVHCNERNKFHSLIYSIRKIHDKYFSDTNKNEELGKKVWNKCCAIITEELLKLDSIQNSQFHNLMQQETVTLQEFEDFVKFSVNGYKNTKKETKKICIKKLKKALNQRL | soluble
MSTSLVDRLWYGQGRPLALLTPLAWLYRAVSESRRRKAWHARNESLPVPVVVVGNITAGGTGKSPLTASLVQCMNQHGWKPVILSRGYGGKSSQYPLLVADGTPAGVCGDEPLMLARATGCPVVVDPDRCRGARWALENGLGDVLICDDGLQHYRLPRDIELAVFDARRGTGNGAIIPVGPLREPVERLNSVDFVVLNGAEFPEAGETIESFAGVDHPEIHAMELVPSALVNLNSGETLSPEQLKGKPVRAVAGIGNPGRFFETLRNLGAHVNEVPFPDHHHFRPEDLASGALEWLVMTAKDAVKCHGFAPDNAWVLTVQARLSEPFEQHFLERLRASSGQLQTDISEESNHGLEHHHHHH | not soluble
MGSDKIHHHHHHMIKICSVAFLSLLLSASSLFAQTKTFAGADYSQGIVFVMENNQMVWKHKAPDSNDLWILPNGNILFTTGHGVLEMTRQNDTIFHYESKSPVFACQRLKNGNTFVGECVTGRMLEISPKGKIVKETCILPKGVKDGGFAFMRNARRLDNGHFLVAHYGDQCVKEYDANGKVVWKLDVPGGPHSLTRLPNGHTLIAVADKDQNPRLIEVTPEGKTIWEISNADIPGKPLKFLGGFQYFSDGRFLITNWTGHVNPKEKVHLLLVDRQKNVLYSLENTPELQTMSSVYSTDKPAGVASYH | not soluble
MGNAKSTDSNPKKSVRRKSATTPSTSSSSRPSISSQGNRKPILSVNQRQIIKGCMDNSKDDLGERIFRRALERRDDFKQFIDNLSKGQRYENSQYLKQFLLGIVENIMDIDEINRISEEFGCNHVQFRANGFKPDFFACTADAVTTECTFLDQAAHPTSETAAAWSLLTSHVFSAVRDGYYAELRRQRKSSNAFRARVSVDVVSTGTDDGTSLSSATRRSNSPQEEIAESFDHHTVENNCVESSGNFLAPPTVY | not soluble
MAKYEEAFKRQVVQEYLRGAVGTAGLSQKYGIGRSVIRRWINAWQRHGKSGLRKKHEAYSAEFKLTVLQRMWRDELSYQQVSAVFDLREAGGVSRWDRQYHEGGFDALQPRRKGGAPIMSQSKQDPQPAAQPAQDERSREDLLKENECLRAEVAYLKKLDALLRAKQQQAPKKKRKSLEHHHHHH | not soluble
